Test results: the supplement of paper PMC10724198
± gives the standard deviation of the averaged measurements.

Tested on: Saccharomyces cerevisiae
Experiment: protein stability index of tFT-peptide fusion (C-terminal peptide) (PSI (0-1 scale)); higher = more stable (slower turnover)
Settings: genetic background: das1 deletion; temperature: 30 C
Protocol: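 MPS profiling in S. cerevisiae of the yeast C-terminome library: the last 12 aa of each annotated ORF are fused to the C-terminus of a sfGFP-mCherry timer, after a GGGS linker. Cells are FACS-sorted into 8 mCherry/sfGFP bins and deep-sequenced. PSI runs from 0 (unstable) to 1 (stable); wild type and das1Δ backgrounds, two technical replicates each.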

Sequence	protein stability index
DFSASSSVEEVK [MFT1 C-terminal 12 aa]	0.7088 ± 0.004
DGTTSKDSEKKK [COA4 C-terminal 12 aa]	0.708 ± 0.011
DHDVSLEEVINI [MCY1 C-terminal 12 aa]	0.722 ± 0.034
DIFDPVDFVSFF [OAF3 C-terminal 12 aa]	0.772 ± 0.033
DILGFKIAPRSA [YGR210C C-terminal 12 aa]	0.682 ± 0.049
DILGSLLAKKRK [MRE11 C-terminal 12 aa]	0.681 ± 0.023
DILLSCIADLTI [POL2 C-terminal 12 aa]	0.71 ± 0.04
DISDSEGGLFEC [PCI8 C-terminal 12 aa]	0.69 ± 0.085
DIYNQLHMFGEK [IGD1 C-terminal 12 aa]	0.663 ± 0.0086
DKEVVYFDEWTI [RPC34 C-terminal 12 aa]	0.726 ± 0.062
DKLAKLLSLDIH [MSH3 C-terminal 12 aa]	0.7167 ± 0.0065
DKVPVHYPPVVE [SYM1 C-terminal 12 aa]	0.686 ± 0.028
DLAERLAETEIK [RNA1 C-terminal 12 aa]	0.703 ± 0.0088
DLASFIKKSLSS [TML25 C-terminal 12 aa]	0.694 ± 0.017
DLKIYLQQDESL [YEL023C C-terminal 12 aa]	0.709 ± 0.028
DNPETKNGRENK [ECM10 C-terminal 12 aa]	0.675 ± 0.016
DPNGILNPYKYI [DLD2 C-terminal 12 aa]	0.708 ± 0.024
DQFQLITQGIYS [PIK1 C-terminal 12 aa]	0.722 ± 0.034
DQLLALYEDGLL [AHC2 C-terminal 12 aa]	0.7371 ± 0.0043
DRVGEVFAKLFG [NNR2 C-terminal 12 aa]	0.7119 ± 0.0012
DSERKVLSEALL [KAP114 C-terminal 12 aa]	0.676 ± 0.013

Sequence	protein stability index
DSFFFDVLAQLP [YLR434C C-terminal 12 aa]	0.7357 ± 0.0072
DTCKSVLYCSTS [YMR193C-A C-terminal 12 aa]	0.694 ± 0.022
DTHTNEIIKKEI [HRQ1 C-terminal 12 aa]	0.6984 ± 0.004
DVFEEIGYSMKD [SAE3 C-terminal 12 aa]	0.715 ± 0.0034
DVHDDVESDDEI [ALF1 C-terminal 12 aa]	0.6961 ± 0.0065
DVKPQENGNDSS [REG1 C-terminal 12 aa]	0.71 ± 0.014
DWEAIDAQTIKL [FAT1 C-terminal 12 aa]	0.746 ± 0.0075
DYKKFIEDVLRQ [MLC1 C-terminal 12 aa]	0.696 ± 0.033
EAELEEDWGMYG [YBR062C C-terminal 12 aa]	0.7114 ± 0.0068
EANNLLNIIKGN [MRP51 C-terminal 12 aa]	0.6795 ± 0.0042
EAQLSRSEVLLV [COS2 C-terminal 12 aa]	0.648 ± 0.0028
EAQLTRKQAPPV [COS9 C-terminal 12 aa]	0.7035 ± 0.004
EATYKVLQQLHK [ADE8 C-terminal 12 aa]	0.71 ± 0.012
EAVYELAKMSLA [MYG1 C-terminal 12 aa]	0.703 ± 0.025
ECDGITVPEKLT [MSC6 C-terminal 12 aa]	0.682 ± 0.012
ECRARKASSNRS [YGR109W-A C-terminal 12 aa]	0.681 ± 0.0073
EDAEKRADEMDD [SRM1 C-terminal 12 aa]	0.691 ± 0.034
EECYLHSESFGY [FRE7 C-terminal 12 aa]	0.68 ± 0.028
EEFINKLVKSMN [RPL7A C-terminal 12 aa]	0.698 ± 0.029
EEIVGRHSDSAT [YAP6 C-terminal 12 aa]	0.6926 ± 0.0035
EEKKKKKIAESK [TIM50 C-terminal 12 aa]	0.681 ± 0.06

Sequence	protein stability index
EELKKLSNPDMN [CUP9 C-terminal 12 aa]	0.713 ± 0.059
EETEAQAEPVEA [RPS3 C-terminal 12 aa]	0.687 ± 0.013
EFEILDAKKEKD [PIM1 C-terminal 12 aa]	0.699 ± 0.0047
EFKCMSVITAQQ [SEH1 C-terminal 12 aa]	0.67622 ± 0.00052
EFMKTNTGSKKV [CCR4 C-terminal 12 aa]	0.703 ± 0.027
EFTDEWFKEHSS [STH1 C-terminal 12 aa]	0.757 ± 0.0035
EGGDLEYQHVKI [YCR043C C-terminal 12 aa]	0.691 ± 0.0077
EGIFPANYVRVS [YSC84 C-terminal 12 aa]	0.663 ± 0.01
EGPRGETIVERF [YJL047C-A C-terminal 12 aa]	0.698 ± 0.008
EGVGCRYPVVLI [YDR467C C-terminal 12 aa]	0.7038 ± 0.0063
EHKGSIEAGFTS [CSS2 C-terminal 12 aa]	0.698 ± 0.023
EHRNIEWEKKTA [POL4 C-terminal 12 aa]	0.7 ± 0.014
EINSDFIENFEE [MSH4 C-terminal 12 aa]	0.701 ± 0.017
EKEFTGNSQSEK [NMA111 C-terminal 12 aa]	0.6859 ± 0.006
EKKKNPYWYYQW [GEP3 C-terminal 12 aa]	0.735 ± 0.009
EKQQRRNMKNAL [RRS1 C-terminal 12 aa]	0.704 ± 0.034
EKTRKNISKFFS [CPR7 C-terminal 12 aa]	0.713 ± 0.022
EKVIDGSIEHSS [YNR061C C-terminal 12 aa]	0.6642 ± 0.0044
EKVRNEGFIKNP [GPM2 C-terminal 12 aa]	0.716 ± 0.03
ELANILESDITL [CIN1 C-terminal 12 aa]	0.70881 ± 0.00043
ELDEIAASLENL [TPM1 C-terminal 12 aa]	0.7088 ± 0.0027

Sequence	protein stability index
ELLCKGICKAAE [HEL1 C-terminal 12 aa]	0.6857 ± 0.0035
EMEKNKLKRKRN [YNG2 C-terminal 12 aa]	0.668 ± 0.054
EMVKKHALNGRI [NRS1 C-terminal 12 aa]	0.7115 ± 0.004
ENKNWSIITPSG [YBL086C C-terminal 12 aa]	0.68945 ± 7e-05
EPMESLRSTTKY [PTR2 C-terminal 12 aa]	0.734 ± 0.022
EPNGYIKNLKWT [RXT3 C-terminal 12 aa]	0.713 ± 0.023
ERLIQQGYLQKI [PSF1 C-terminal 12 aa]	0.698 ± 0.024
ERNGWKFFFKEV [YHR137C-A C-terminal 12 aa]	0.69374 ± 0.00051
ERNKKSRPPIYK [ARL3 C-terminal 12 aa]	0.734 ± 0.03
ETLAKLREQGLM [TOM70 C-terminal 12 aa]	0.6797 ± 0.0058
EVHALNRDHLVA [YHR138C C-terminal 12 aa]	0.692 ± 0.0076
EVLDQLEPQDSS [MCM6 C-terminal 12 aa]	0.699 ± 0.019
EYDDDSGNQGVW [GRE1 C-terminal 12 aa]	0.6914 ± 0.00077
EYIVNVNEYGHD [YOL153C C-terminal 12 aa]	0.6799 ± 0.0043
EYSKKYLTTFFQ [YEA6 C-terminal 12 aa]	0.706 ± 0.025
FAAVSFVLGTGI [NCW1 C-terminal 12 aa]	0.714 ± 0.008
FAEYNRLSAIPV [LAM1 C-terminal 12 aa]	0.447 ± 0.015
FAGENFHHGDKL [ENO1 C-terminal 12 aa]	0.707 ± 0.016
FCHGAEDAWNIL [EMG1 C-terminal 12 aa]	0.7275 ± 0.0017
